Assay results taken from PMC5879659 (Proceedings of the National Academy of Sciences of the …, 2018).
Square brackets hold non-standard residues; d marks the D form. Ends that are not written are not given here. Hyp = O=C(O)[C@@H]1C[C@@H](O)CN1

Biological target: T1, HAESA LRR ectodomain (Arabidopsis thaliana, UniProt P47735 15-621)
T1 sequence (looked up): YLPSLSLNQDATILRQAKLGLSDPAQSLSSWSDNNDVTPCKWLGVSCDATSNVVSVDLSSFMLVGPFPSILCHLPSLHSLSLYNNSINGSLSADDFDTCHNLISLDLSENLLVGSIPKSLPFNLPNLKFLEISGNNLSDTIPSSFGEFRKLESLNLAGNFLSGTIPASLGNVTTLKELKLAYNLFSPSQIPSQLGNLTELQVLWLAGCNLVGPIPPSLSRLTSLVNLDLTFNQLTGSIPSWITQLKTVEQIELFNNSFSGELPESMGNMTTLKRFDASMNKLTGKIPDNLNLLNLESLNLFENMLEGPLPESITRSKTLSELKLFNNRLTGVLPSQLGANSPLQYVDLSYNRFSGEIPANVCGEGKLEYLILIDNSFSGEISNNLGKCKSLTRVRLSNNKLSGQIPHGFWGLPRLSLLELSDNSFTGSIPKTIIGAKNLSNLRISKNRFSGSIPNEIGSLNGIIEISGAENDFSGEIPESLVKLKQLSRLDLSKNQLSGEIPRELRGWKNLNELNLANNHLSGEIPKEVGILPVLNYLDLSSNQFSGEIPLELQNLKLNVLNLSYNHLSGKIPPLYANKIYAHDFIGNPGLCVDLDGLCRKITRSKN
Assay: grating-coupled interferometry

Kd: ~30 µM | koff: ~2 s⁻¹ | kon: ~60000 M⁻¹ s⁻¹
Binder: YVPIPPSA[Hyp]SKRHN [INFLORESCENCE DEFICIENT IN ABSCISSION (IDA) peptide, Y-IDA]
